Values quoted from earlier work, collected in paper PMC10611464.
Where two headings read alike, the source gives them in different places.

What was measured:
[1] = molecular target: PACAP (Homo sapiens) (UniProt P18509)
[2] = molecular target: VIP (Homo sapiens) (UniProt P01282)
[3] = molecular target: PACAP (Homo sapiens) (UniProt P18509); remark: listed apart in the source
[4] = molecular target: PACAP (Homo sapiens) (UniProt P18509); remark: listed apart in the source
[5] = molecular target: VIP (Homo sapiens) (UniProt P01282); remark: listed apart in the source

Chain of UniProt P18509 (P18509 82-129): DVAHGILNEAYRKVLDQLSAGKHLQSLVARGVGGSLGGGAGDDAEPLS
Chain of UniProt P01282 (P01282 125-152): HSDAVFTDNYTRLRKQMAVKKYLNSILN

## PAC1 (from UniProt P41586)
[1]
  Kd: 0.5 nM

## VPAC1 (from UniProt P32241)
[2]
  Kd: 1 nM
[3]
  Kd: 1 nM

## VPAC2 (from UniProt P41587)
[4]
  Kd: 1 nM
[5]
  Kd: 1 nM
